The target of assay [1] is VpOmpM1 (OmpM1 from Veillonella parvula), full length, expressed in E. coli (Veillonella parvula). Description: cryo-EM structure.
In assay [2] the target is VpOmpM1 stalk region (residues 22-107), soluble construct (Veillonella parvula). The assay can be described thus: crystal structure.

“VpOmpM1 (OmpM1 from Veillonella parvula), full length, expressed in E. coli (natural protein)”: the stoichiometry N in assay [1] was 3. In turn, “VpOmpM1 stalk region (residues 22-107), soluble construct (domain or fragment)” gave a stoichiometry N in assay [2] of 3.
